Source: patent US20210221875A1 (Chugai, published 2021)

B1: GRA0124Hc0626-SG1/GRA0124Lc0544-SK2021 (antibody, human IgG1, kappa)
heavy: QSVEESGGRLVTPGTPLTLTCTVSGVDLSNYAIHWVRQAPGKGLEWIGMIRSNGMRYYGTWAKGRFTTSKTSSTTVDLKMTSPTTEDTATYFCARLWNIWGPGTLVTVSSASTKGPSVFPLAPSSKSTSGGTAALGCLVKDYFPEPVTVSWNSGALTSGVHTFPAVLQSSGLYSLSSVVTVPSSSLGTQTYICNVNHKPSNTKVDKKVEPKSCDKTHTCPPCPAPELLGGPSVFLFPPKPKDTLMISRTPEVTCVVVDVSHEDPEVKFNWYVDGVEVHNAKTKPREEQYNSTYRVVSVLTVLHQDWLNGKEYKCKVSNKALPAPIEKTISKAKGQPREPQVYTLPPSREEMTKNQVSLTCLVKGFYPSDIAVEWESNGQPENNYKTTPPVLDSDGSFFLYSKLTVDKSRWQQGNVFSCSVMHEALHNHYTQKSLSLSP
light: AQVLTQTPSSTSVAVGGTVTINCQSSPSVYLNLLAWYQQKPGQPPKLLIYSASFLQSGVPPRFSGSGSGTQFTLTISGVQCADAATYYCAGVYSNNIYTFGGGTKVEIKETVAAPSVFIFPPSDEQLKSGTASVVCLLNNFYPREAEVQWKVDNALQSGNSQESVTEQDSKDCTYSLSSTLTLSKADYEKHKVYACEVTHQGLSSPVTKSFNRGEC
notes: the row with this full length name is used
B2: GRA0124Hc0626-SG1/GRA0124Lc0694-SK2 (antibody, human IgG1, kappa, V domains shown)
VH: QSVEESGGRLVTPGTPLTLTCTVSGVDLSNYAIHWVRQAPGKGLEWIGMIRSNGMRYYGTWAKGRFTTSKTSSTTVDLKMTSPTTEDTATYFCARLWNIWGPGTLVTVSS
VL: AQVLTQTPSSTSVAVGGTVTINCQSSPSVYLNLLAWYQQKPGQPPKLLIYSASALQSGVPPRFSGSGSGTQFTLTISGVQCADAATYYCAGVYSNNIYTFGGGTKVEIKR
notes: full length antibody
B3: GRA0124Hc0626-SG1/GRA0124Lc0951-SK2 (antibody, human IgG1, kappa, V domains shown)
VH: QSVEESGGRLVTPGTPLTLTCTVSGVDLSNYAIHWVRQAPGKGLEWIGMIRSNGMRYYGTWAKGRFTTSKTSSTTVDLKMTSPTTEDTATYFCARLWNIWGPGTLVTVSS
VL: AQVLTQTPSSTSVAVGGTVTINCQSSPSVYLNLLAWYQQKPGQPPKLLIYSASFLQSDVPDRFSGSGDGDQFDLDIDGVQCADAATYYCAGVYSNNIYTFGGGTKVEIKR
notes: full length antibody
B4: GRA0124Hc0626-SG1265/GRA0124Lc0544-SK2 (antibody, human IgG1, kappa)
heavy: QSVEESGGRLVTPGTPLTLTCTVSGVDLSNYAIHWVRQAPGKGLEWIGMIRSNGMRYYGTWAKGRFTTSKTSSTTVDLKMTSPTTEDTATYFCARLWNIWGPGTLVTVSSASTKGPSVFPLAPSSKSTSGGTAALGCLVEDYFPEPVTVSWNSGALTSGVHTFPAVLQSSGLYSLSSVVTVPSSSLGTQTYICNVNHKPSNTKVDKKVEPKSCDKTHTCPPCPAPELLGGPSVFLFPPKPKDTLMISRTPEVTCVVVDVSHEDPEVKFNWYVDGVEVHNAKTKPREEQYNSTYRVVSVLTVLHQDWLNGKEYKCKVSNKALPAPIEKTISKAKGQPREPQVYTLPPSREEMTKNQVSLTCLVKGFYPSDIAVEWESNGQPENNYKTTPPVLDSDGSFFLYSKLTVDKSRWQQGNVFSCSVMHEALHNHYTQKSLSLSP
light: AQVLTQTPSSTSVAVGGTVTINCQSSPSVYLNLLAWYQQKPGQPPKLLIYSASFLQSGVPPRFSGSGSGTQFTLTISGVQCADAATYYCAGVYSNNIYTFGGGTKVEIKRTVAAPSVFIFPPSDEQLKSGTASVVCLLNNFYPREAKVQWKVDNALQSGNSQESVTEQDSKDCTYSLSSTLTLSKADYEKHKVYACEVTHQGLSSPVTKSFNRGEC
notes: full length antibody
B5: GRA0124Hc0626-SG1265/GRA0124Lc0544-SK2021 (antibody, human IgG1, kappa)
heavy: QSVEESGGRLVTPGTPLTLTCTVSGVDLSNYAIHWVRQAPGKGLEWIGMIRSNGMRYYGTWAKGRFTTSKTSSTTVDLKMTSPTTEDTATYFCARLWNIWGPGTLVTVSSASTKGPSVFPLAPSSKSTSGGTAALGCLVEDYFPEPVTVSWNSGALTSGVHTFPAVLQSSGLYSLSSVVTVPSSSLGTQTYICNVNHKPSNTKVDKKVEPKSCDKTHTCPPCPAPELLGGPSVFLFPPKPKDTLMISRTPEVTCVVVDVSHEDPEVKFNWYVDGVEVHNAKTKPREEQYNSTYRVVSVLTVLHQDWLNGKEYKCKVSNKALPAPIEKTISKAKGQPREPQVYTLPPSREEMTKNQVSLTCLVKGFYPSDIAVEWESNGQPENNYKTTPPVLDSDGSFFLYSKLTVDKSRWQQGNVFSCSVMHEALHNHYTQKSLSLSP
light: AQVLTQTPSSTSVAVGGTVTINCQSSPSVYLNLLAWYQQKPGQPPKLLIYSASFLQSGVPPRFSGSGSGTQFTLTISGVQCADAATYYCAGVYSNNIYTFGGGTKVEIKETVAAPSVFIFPPSDEQLKSGTASVVCLLNNFYPREAEVQWKVDNALQSGNSQESVTEQDSKDCTYSLSSTLTLSKADYEKHKVYACEVTHQGLSSPVTKSFNRGEC
notes: the L chain name is printed with both 563 and 564 (564 stands in the row of the Fab SG1265/SK2021)
B6: GRA0124Hc0626-SG1286/GRA0124Lc0544-SK2 (antibody, human IgG1, kappa)
heavy: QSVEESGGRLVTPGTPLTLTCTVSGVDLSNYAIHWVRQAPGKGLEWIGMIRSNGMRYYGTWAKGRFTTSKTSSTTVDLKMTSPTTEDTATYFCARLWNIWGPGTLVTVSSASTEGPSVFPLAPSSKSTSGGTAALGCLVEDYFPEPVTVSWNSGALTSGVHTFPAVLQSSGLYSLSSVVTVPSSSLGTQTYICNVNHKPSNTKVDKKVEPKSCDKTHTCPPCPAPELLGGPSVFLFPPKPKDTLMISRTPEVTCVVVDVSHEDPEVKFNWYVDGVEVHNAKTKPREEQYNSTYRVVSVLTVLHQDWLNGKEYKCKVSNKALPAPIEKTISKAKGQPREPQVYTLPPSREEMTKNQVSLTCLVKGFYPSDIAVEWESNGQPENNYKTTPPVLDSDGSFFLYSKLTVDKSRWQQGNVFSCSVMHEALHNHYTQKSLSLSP
light: AQVLTQTPSSTSVAVGGTVTINCQSSPSVYLNLLAWYQQKPGQPPKLLIYSASFLQSGVPPRFSGSGSGTQFTLTISGVQCADAATYYCAGVYSNNIYTFGGGTKVEIKRTVAAPSVFIFPPSDEQLKSGTASVVCLLNNFYPREAKVQWKVDNALQSGNSQESVTEQDSKDCTYSLSSTLTLSKADYEKHKVYACEVTHQGLSSPVTKSFNRGEC
B7: GRA0124Hc0626-SG1286/GRA0124Lc0544-SK2025 (antibody, human IgG1, kappa)
heavy: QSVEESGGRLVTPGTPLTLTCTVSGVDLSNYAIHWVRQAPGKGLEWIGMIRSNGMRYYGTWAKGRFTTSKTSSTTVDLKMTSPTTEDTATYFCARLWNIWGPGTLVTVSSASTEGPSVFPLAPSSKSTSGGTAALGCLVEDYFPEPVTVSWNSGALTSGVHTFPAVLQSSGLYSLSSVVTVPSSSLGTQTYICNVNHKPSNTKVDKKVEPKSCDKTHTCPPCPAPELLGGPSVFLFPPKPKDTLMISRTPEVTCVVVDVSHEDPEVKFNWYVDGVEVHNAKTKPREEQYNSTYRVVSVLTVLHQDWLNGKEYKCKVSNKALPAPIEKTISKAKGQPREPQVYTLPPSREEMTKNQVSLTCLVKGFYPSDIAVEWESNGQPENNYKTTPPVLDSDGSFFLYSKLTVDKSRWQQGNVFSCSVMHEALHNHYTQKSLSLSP
light: AQVLTQTPSSTSVAVGGTVTINCQSSPSVYLNLLAWYQQKPGQPPKLLIYSASFLQSGVPPRFSGSGSGTQFTLTISGVQCADAATYYCAGVYSNNIYTFGGGTKVEIKRTVAAPSVFIFPPSDEQLKSGTASVVCLLNNFYPREAEVQWKVDNALQSGNSQESVTEQDSEDCTYSLSSTLTLSKADYEKHKVYACEVTHQGLSSPVTKSFNRGEC
B8: GRA0124Hc0626-SG1286/GRA0124Lc0544-SK2027 (antibody, human IgG1, kappa)
heavy: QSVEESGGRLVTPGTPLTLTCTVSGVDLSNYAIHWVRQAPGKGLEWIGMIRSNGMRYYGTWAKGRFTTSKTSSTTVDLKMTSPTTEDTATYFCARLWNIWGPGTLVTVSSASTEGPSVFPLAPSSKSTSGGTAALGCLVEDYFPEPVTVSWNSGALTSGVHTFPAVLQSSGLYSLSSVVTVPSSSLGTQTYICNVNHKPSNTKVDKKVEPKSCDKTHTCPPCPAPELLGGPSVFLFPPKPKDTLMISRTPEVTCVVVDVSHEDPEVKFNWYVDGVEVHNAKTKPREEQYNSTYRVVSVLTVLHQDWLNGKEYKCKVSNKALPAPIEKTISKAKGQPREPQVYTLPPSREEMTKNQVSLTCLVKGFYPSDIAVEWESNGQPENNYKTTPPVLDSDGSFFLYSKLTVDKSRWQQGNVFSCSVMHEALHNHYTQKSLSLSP
light: AQVLTQTPSSTSVAVGGTVTINCQSSPSVYLNLLAWYQQKPGQPPKLLIYSASFLQSGVPPRFSGSGSGTQFTLTISGVQCADAATYYCAGVYSNNIYTFGGGTKVEIKETVAAPSVFIFPPSDEQLKSGTASVVCLLNNFYPREAEVQWKVDNALQSGNSQESVTEQDSEDCTYSLSSTLTLSKADYEKHKVYACEVTHQGLSSPVTKSFNRGEC
notes: full length antibody
B9: GRA0124Hc1075-SG1/GRA0124Lc0952-SK2 (antibody, human IgG1, kappa, V domains shown)
VH: QSVEESGGDLVTPGTPLTLTCTVDGVDLSNYAIHWVRQAPGKGLEWIGMIRSNGMRYYGTWAKGRFTTSKTSSTTVDLKMTSPTTEDTATYFCARLWNIWGPGTLVTVSS
VL: AQVLDQTPSSTSVAVGGTVTINCQSSPSVYLNLLAWYQQKPGQPPKLLIYSASFLQSDVPDRFSGSGDGDQFDLDIDGVQCADAATYYCAGVYSNNIYTFGGGTKVEIKR
notes: full length antibody
B10: GRA1013Hhz-SG1/GRA1013Lqz-SK2 (antibody, human IgG1, kappa)
heavy: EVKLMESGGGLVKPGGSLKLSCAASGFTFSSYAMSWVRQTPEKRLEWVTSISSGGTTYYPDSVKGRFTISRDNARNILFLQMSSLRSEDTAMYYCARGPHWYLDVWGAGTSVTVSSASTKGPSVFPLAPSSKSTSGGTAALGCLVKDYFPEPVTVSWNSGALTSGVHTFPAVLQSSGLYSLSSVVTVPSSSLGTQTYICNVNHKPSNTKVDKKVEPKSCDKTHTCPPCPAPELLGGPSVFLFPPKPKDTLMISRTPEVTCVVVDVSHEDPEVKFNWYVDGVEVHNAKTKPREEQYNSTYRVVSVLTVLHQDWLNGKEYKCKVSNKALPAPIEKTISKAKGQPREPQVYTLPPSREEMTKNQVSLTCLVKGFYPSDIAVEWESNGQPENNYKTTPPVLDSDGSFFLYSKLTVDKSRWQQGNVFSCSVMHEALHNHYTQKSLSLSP
light: DILMTQTPLSLPVSLGDQASISCRSSQSIVHSNGNTYLEWYLQKPGQSPKLLIYKVSNRFSGVPDRFSGSGSGTDFTLKISRVEAEDLGVYYCFQGSHLPLTFGAGTKLELKRTVAAPSVFIFPPSDEQLKSGTASVVCLLNNFYPREAKVQWKVDNALQSGNSQESVTEQDSKDCTYSLSSTLTLSKADYEKHKVYACEVTHQGLSSPVTKSFNRGEC
notes: full length antibody
B11: GRA0105Hg-SG1/GRA0105Lg-SK2 (antibody, human IgG1, kappa)
heavy: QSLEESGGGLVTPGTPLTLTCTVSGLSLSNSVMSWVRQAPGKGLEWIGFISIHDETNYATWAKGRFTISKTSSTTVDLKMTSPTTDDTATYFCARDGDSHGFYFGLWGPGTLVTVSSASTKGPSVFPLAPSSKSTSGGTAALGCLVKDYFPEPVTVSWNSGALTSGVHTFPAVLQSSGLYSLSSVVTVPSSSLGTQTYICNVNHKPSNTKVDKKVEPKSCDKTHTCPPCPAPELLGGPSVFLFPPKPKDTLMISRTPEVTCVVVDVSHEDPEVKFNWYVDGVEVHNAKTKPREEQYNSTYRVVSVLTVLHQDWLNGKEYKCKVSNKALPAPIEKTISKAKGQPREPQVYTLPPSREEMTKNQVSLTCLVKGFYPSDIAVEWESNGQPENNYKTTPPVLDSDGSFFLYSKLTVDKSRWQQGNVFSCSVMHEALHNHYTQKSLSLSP
light: AQVLTQTPSPVSAAVGGTVTINCQASQSVYNKNNLAWYQQKPGQPPKLLIYDASKLASGVPSRFKGGGSGTHFTLTISGVQCDDAATYYCQGTYYSSGWYNTFGGGTKVEIKRTVAAPSVFIFPPSDEQLKSGTASVVCLLNNFYPREAKVQWKVDNALQSGNSQESVTEQDSKDCTYSLSSTLTLSKADYEKHKVYACEVTHQGLSSPVTKSFNRGEC
notes: full length antibody
B12: 20A11-G1m/VK1-39-k0MT (antibody, human IgG1, kappa, V domains shown)
VH: EVQLVESGGGLVQPGGSLRLSCAASGSVFKINVMAWYRQAPGKGRELVAGIISGGSTSYADSVKGRFTISRDNAKNTLYLQMNSLRPEDTAVYYCAFITTESDYDLGRRYWGQGTLVTVSS
VL: DIQMTQSPSSLSASVGDRVTITCRASQSISSYLNWYQQKPGKAPKLLIYAASSLQSGVPSRFSGSGSGTDFTLTISSLQPEDFATYYCLQFDSYPLTFGGGTKVEIKR
notes: IgG antibody-like molecule: anti-IL6R VHH 20A11 fused with human IgG1 CH1-hinge-CH2-CH3
B13: 20A11-G1m/VK2-28-k0MT (antibody, human IgG1, kappa, V domains shown)
VH: EVQLVESGGGLVQPGGSLRLSCAASGSVFKINVMAWYRQAPGKGRELVAGIISGGSTSYADSVKGRFTISRDNAKNTLYLQMNSLRPEDTAVYYCAFITTESDYDLGRRYWGQGTLVTVSS
VL: not shown
notes: IgG antibody-like molecule with VHH 20A11 in place of VH
B14: 20A11-G1m/VL1-40-lamL (antibody, human IgG1, lambda, V domains shown)
VH: EVQLVESGGGLVQPGGSLRLSCAASGSVFKINVMAWYRQAPGKGRELVAGIISGGSTSYADSVKGRFTISRDNAKNTLYLQMNSLRPEDTAVYYCAFITTESDYDLGRRYWGQGTLVTVSS
VL: QSVLTQPPSVSGAPGQRVTISCTGSSSNIGAGYDVHWYQQLPGTAPKLLIYGNSNRPSGVPDRFSGSKSGTSASLAITGLQAEDEADYYCQSYDNSLNAVVFGGGTKLTVLG
notes: as for B13
B15: 20A11-G1m/VL1-44-lamL (antibody, human IgG1, lambda, V domains shown)
VH: EVQLVESGGGLVQPGGSLRLSCAASGSVFKINVMAWYRQAPGKGRELVAGIISGGSTSYADSVKGRFTISRDNAKNTLYLQMNSLRPEDTAVYYCAFITTESDYDLGRRYWGQGTLVTVSS
VL: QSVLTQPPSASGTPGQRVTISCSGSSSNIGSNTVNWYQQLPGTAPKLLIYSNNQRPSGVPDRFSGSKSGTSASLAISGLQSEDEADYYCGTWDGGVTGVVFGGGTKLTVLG
notes: as for B13
B16: 20A11-G1m/VL2-14-lamL (antibody, human IgG1, lambda, V domains shown)
VH: EVQLVESGGGLVQPGGSLRLSCAASGSVFKINVMAWYRQAPGKGRELVAGIISGGSTSYADSVKGRFTISRDNAKNTLYLQMNSLRPEDTAVYYCAFITTESDYDLGRRYWGQGTLVTVSS
VL: QSALTQPASVSGSPGQSITISCTGTSSDVGGYNYVSWYQQHPGKAPKLMIYEVSNRPSGVSNRFSGSKSGNTASLTISGLQAEDEADYYCSSYRSGYTLVVFGGGTKLTVLG
notes: as for B13

Molecular target: T1, biotin-rabbit aggrecan G1-IGD-G2-3xFlag (rabbit, UniProt Q28670 17-683, biotin on the N-terminal Avi-tag (BirA co-expression))
T1 construct: three tandem Flag-tags at the C-terminus and Avi-tag at the N-terminus; also called biotinylated Avi-rabbit aggrecan G1-IGD-G2-3xFLAG; Avi RbG1G2 3FLAG
Test: SPR (Biacore T200), 37 C, pH 7.4, antibody captured, Avi RbG1G2 3Flag as analyte, 1:1 model;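 note: antibodies captured at roughly 200 RU on a CM4 or C1 chip through anti-human IgG Fc or Protein A/G, in sodium phosphate NaCl buffer with Tween 20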
Protocol: Anti-Human IgG (Fc) antibody was immobilized onto all flow cells of a CM4 sensor chip using Human antibody capture kit (GE Healthcare). Protein A/G was immobilized onto all flow cells of a CM4 or C1 sensor chip using amine coupling kit (GE Healthcare). Antibodies and analytes were prepared in buffer (50 mM Sodium Phosphate, 150 mM NaCl, 0.02% Tween 20, 0.005% NaN3, pH 7.4 or 20 mM Sodium Phosphate, 150 mM NaCl, 0.05% Tween20, 0.005% NaN₃, pH 7.4). Each antibody was captured onto the sensor surface by Anti-Human IgG (Fc) antibody or Protein A/G. Antibody capture levels were aimed at 200 resonance unit (RU). […] Sensor surface was regenerated each cycle with 3 M MgCl₂ or 10 mM Glycine-HCl, pH 1.5.

| Binder | Kd | koff | kon |
| --- | --- | --- | --- |
| B1 | 13.4 nM | 0.000718 s⁻¹ | 53500 M⁻¹ s⁻¹ |
| B2 | 77.5 nM | 0.00202 s⁻¹ | 26100 M⁻¹ s⁻¹ |
| B3 | 4.04 nM | 0.000321 s⁻¹ | 79400 M⁻¹ s⁻¹ |
| B4 | 15.9 nM | 0.000837 s⁻¹ | 52700 M⁻¹ s⁻¹ |
| B5 | 14.4 nM | 0.000757 s⁻¹ | 52700 M⁻¹ s⁻¹ |
| B6 | 17 nM | 0.000883 s⁻¹ | 51900 M⁻¹ s⁻¹ |
| B7 | 15.2 nM | 0.000786 s⁻¹ | 51900 M⁻¹ s⁻¹ |
| B8 | 15.1 nM | 0.00078 s⁻¹ | 51700 M⁻¹ s⁻¹ |
| B9 | 3.68 nM | 0.000267 s⁻¹ | 72700 M⁻¹ s⁻¹ |
| B10 | 256 nM | 0.0147 s⁻¹ | 57600 M⁻¹ s⁻¹ |
| B11 | 3.28 nM | 0.000455 s⁻¹ | 139000 M⁻¹ s⁻¹ |

Molecular target: T2, soluble human IL-6R (human, UniProt P08887 20-357)
T2 construct: also called hsIL-6R; recombinant human IL6R
T2 sequence: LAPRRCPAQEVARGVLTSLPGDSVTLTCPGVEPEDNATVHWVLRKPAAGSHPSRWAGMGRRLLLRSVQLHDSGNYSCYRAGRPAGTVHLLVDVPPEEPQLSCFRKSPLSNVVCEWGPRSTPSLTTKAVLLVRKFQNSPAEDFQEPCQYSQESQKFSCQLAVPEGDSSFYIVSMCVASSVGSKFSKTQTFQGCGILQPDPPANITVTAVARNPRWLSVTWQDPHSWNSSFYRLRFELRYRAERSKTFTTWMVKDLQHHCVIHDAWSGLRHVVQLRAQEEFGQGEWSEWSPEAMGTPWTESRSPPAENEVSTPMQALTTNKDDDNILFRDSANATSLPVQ
Test: BLI (Octet), in the same way as in Example 3

| Binder | binding result |
| --- | --- |
| B12 | binds |
| B13 | binds |
| B14 | binds |
| B15 | binds |
| B16 | binds |
